Assay results as given in IntAct's records for PubMed 25910212.

B1: 5-aminolevulinate synthase, erythroid-specific, mitochondrial (Homo sapiens), P22557-2 (parent)
chain: MVTAAMLLQCCPVLARGPTSLLGKVVKTHQFLFGIGRCPILATQGPNCSQIHLKATKAGGDSPSWAKGHCPFMLSELQDGKSKIVQKAAPEVQEDVKAFKTGNYVFSYDQFFRDKIMEKKQDHTYRVFKTVNRWADAYPFAQHFSEASVASKDVSVWCSNDYLGMSRHPQVLQATQETLQRHGAGAGGTRNISGTSKFHVELEQELAELHQKDSALLFSSCFVANDSTLFTLAKILPGCEIYSDAGNHASMIQGIRNSGAAKFVFRHNDPDHLKKLLEKSNPKIPKIVAFETVHSMDGAICPLEELCDVSHQYGALTFVDEVHAVGLYGSRGAGIGERDGIMHKIDIISGTLGKAFGCVGGYIASTRDLVDMVRSYAAGFIFTTSLPPMVLSGALESVRLLKGEEGQALRRAHQRNVKHMRQLLMDRGLPVIPCPSHIIPIRVGNAALNSKLCDLLLSKHGIYVQAINYPTVPRGEELLRLAPSPHHSPQMMEDFVEKLLLAWTAVGLPLQDVSVAACNFCRRPVHFELMSEWERSYFGNMGPQYVTTYA
partner: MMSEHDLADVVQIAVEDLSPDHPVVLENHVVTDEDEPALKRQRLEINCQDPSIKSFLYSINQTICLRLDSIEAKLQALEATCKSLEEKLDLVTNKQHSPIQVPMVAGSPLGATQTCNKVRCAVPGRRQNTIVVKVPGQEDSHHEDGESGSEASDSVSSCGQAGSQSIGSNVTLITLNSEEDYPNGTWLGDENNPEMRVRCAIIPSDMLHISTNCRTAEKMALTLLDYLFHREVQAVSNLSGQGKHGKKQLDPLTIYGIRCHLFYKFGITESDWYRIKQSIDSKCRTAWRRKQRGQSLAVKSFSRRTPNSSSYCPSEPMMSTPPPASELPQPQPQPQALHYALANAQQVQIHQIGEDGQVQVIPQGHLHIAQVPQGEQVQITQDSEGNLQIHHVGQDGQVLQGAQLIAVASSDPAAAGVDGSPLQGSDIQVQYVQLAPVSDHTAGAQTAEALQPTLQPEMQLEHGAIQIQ
B2: DNA mismatch repair protein Mlh1 (Homo sapiens), P40692 (parent)
chain: MSFVAGVIRRLDETVVNRIAAGEVIQRPANAIKEMIENCLDAKSTSIQVIVKEGGLKLIQIQDNGTGIRKEDLDIVCERFTTSKLQSFEDLASISTYGFRGEALASISHVAHVTITTKTADGKCAYRASYSDGKLKAPPKPCAGNQGTQITVEDLFYNIATRRKALKNPSEEYGKILEVVGRYSVHNAGISFSVKKQGETVADVRTLPNASTVDNIRSIFGNAVSRELIEIGCEDKTLAFKMNGYISNANYSVKKCIFLLFINHRLVESTSLRKAIETVYAAYLPKNTHPFLYLSLEISPQNVDVNVHPTKHEVHFLHEESILERVQQHIESKLLGSNSSRMYFTQTLLPGLAGPSGEMVKSTTSLTSSSTSGSSDKVYAHQMVRTDSREQKLDAFLQPLSKPLSSQPQAIVTEDKTDISSGRARQQDEEMLELPAPAEVAAKNQSLEGDTTKGTSEMSEKRGPTSSNPRKRHREDSDVEMVEDDSRKEMTAACTPRRRIINLTSVLSLQEEINEQGHEVLREMLHNHSFVGCVNPQWALAQHQTKLYLLNTTKLSEELFYQILIYDFANFGVLRLSEPAPLFDLAMLALDSPESGWTEEDGPKEGLAEYIVEFLKKKAEMLADYFSLEIDEEGNLIGLPLLIDNYVPPLEGLPIFILRLATEVNWDEEKECFESLSKECAMFYSIRKQYISEESTLSGQQSEVPGSIPNSWKWTVEHIVYKALRSHILPPKHFTEDGNILQLANLPDLYKVFERC
partner: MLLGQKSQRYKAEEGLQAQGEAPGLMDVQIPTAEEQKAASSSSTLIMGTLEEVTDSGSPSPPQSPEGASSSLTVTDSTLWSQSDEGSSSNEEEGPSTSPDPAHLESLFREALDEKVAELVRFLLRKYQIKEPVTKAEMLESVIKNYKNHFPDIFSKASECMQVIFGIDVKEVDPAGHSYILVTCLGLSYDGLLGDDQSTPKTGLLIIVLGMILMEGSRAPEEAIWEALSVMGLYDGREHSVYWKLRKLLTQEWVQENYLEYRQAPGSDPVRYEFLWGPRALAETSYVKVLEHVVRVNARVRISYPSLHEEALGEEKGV
B3: Adenosylhomocysteinase (Homo sapiens), P23526 (parent)
chain: MSDKLPYKVADIGLAAWGRKALDIAENEMPGLMRMRERYSASKPLKGARIAGCLHMTVETAVLIETLVTLGAEVQWSSCNIFSTQDHAAAAIAKAGIPVYAWKGETDEEYLWCIEQTLYFKDGPLNMILDDGGDLTNLIHTKYPQLLPGIRGISEETTTGVHNLYKMMANGILKVPAINVNDSVTKSKFDNLYGCRESLIDGIKRATDVMIAGKVAVVAGYGDVGKGCAQALRGFGARVIITEIDPINALQAAMEGYEVTTMDEACQEGNIFVTTTGCIDIILGRHFEQMKDDAIVCNIGHFDVEIDVKWLNENAVEKVNIKPQVDRYRLKNGRRIILLAEGRLVNLGCAMGHPSFVMSNSFTNQVMAQIELWTHPDKYPVGVHFLPKKLDEAVAEAHLGKLNVKLTKLTEKQAQYLGMSCDGPFKPDHYRY
partner: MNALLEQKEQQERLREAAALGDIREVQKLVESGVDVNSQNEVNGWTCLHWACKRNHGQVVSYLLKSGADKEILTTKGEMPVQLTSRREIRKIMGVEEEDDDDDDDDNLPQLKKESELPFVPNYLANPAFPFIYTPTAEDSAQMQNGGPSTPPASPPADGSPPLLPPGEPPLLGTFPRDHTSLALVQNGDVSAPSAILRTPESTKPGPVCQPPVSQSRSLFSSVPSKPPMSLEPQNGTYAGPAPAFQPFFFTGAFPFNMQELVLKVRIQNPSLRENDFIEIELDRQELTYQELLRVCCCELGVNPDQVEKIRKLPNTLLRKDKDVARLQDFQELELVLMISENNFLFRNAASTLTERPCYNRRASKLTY
B4: Sulfite oxidase, mitochondrial (Homo sapiens), P51687 (parent)
chain: MLLLHRAVVLRLQQACRLKSIPSRICIQACSTNDSFQPQRPSLTFSGDNSSTQGWRVMGTLLGLGAVLAYQDHRCRAAQESTHIYTKEEVSSHTSPETGIWVTLGSEVFDVTEFVDLHPGGPSKLMLAAGGPLEPFWALYAVHNQSHVRELLAQYKIGELNPEDKVAPTVETSDPYADDPVRHPALKVNSQRPFNAEPPPELLTENYITPNPIFFTRNHLPVPNLDPDTYRLHVVGAPGGQSLSLSLDDLHNFPRYEITVTLQCAGNRRSEMTQVKEVKGLEWRTGAISTARWAGARLCDVLAQAGHQLCETEAHVCFEGLDSDPTGTAYGASIPLARAMDPEAEVLLAYEMNGQPLPRDHGFPVRVVVPGVVGARHVKWLGRVSVQPEESYSHWQRRDYKGFSPSVDWETVDFDSAPSIQELPVQSAITEPRDGETVESGEVTIKGYAWSGGGRAVIRVDVSLDGGLTWQVAKLDGEEQRPRKAWAWRLWQLKAPVPAGQKELNIVCKAVDDGYNVQPDTVAPIWNLRGVLSNAWHRVHVYVSP

Variants of: B1
Conditions: with BANP
For MVTAAMLLQCCPVLARGPTSLLGKVVKTHQFLFGIGRCPILATQGPNCSQIHLKATKAGGDSPSWAKGHCPFMLSELQDGKSKIVQKAAPEVQEDVKAFKTGNYVFSYDQFFRDKIMEKKQDHTYRVFKTVNHWADAYPFAQHFSEASVASKDVSVWCSNDYLGMSRHPQVLQATQETLQRHGAGAGGTRNISGTSKFHVELEQELAELHQKDSALLFSSCFVANDSTLFTLAKILPGCEIYSDAGNHASMIQGIRNSGAAKFVFRHNDPDHLKKLLEKSNPKIPKIVAFETVHSMDGAICPLEELCDVSHQYGALTFVDEVHAVGLYGSRGAGIGERDGIMHKIDIISGTLGKAFGCVGGYIASTRDLVDMVRSYAAGFIFTTSLPPMVLSGALESVRLLKGEEGQALRRAHQRNVKHMRQLLMDRGLPVIPCPSHIIPIRVGNAALNSKLCDLLLSKHGIYVQAINYPTVPRGEELLRLAPSPHHSPQMMEDFVEKLLLAWTAVGLPLQDVSVAACNFCRRPVHFELMSEWERSYFGNMGPQYVTTYA [R133H], the “effect of a mutation on the interaction” value was “with no effect”.
With MVTAAMLLQCCPVLARGPTSLLGKVVKTHQFLFGIGRCPILATQGPNCSQIHLKATKAGGDSPSWAKGHCPFMLSELQDGKSKIVQKAAPEVQEDVKAFKTGNYVFSYDQFFRDKIMEKKQDHTYRVFKTVNRWADAYPFAQHFSEASVASKDVSVWCSNDYLGMSRHPQVLQATQETLQRHGAGAGGTRNISGTSKFHVELEQELAELHQKDSALLFSSCFVANDSTLFTLAKILPGCEIYSDAGNHASMTQGIRNSGAAKFVFRHNDPDHLKKLLEKSNPKIPKIVAFETVHSMDGAICPLEELCDVSHQYGALTFVDEVHAVGLYGSRGAGIGERDGIMHKIDIISGTLGKAFGCVGGYIASTRDLVDMVRSYAAGFIFTTSLPPMVLSGALESVRLLKGEEGQALRRAHQRNVKHMRQLLMDRGLPVIPCPSHIIPIRVGNAALNSKLCDLLLSKHGIYVQAINYPTVPRGEELLRLAPSPHHSPQMMEDFVEKLLLAWTAVGLPLQDVSVAACNFCRRPVHFELMSEWERSYFGNMGPQYVTTYA [I252T] the “effect of a mutation on the interaction” value was “disrupting interaction strength”.
MVTAAMLLQCCPVLARGPTSLLGKVVKTHQFLFGIGRCPILATQGPNCSQIHLKATKAGGDSPSWAKGHCPFMLSELQDGKSKIVQKAAPEVQEDVKAFKTGNYVFSYDQFFRDKIMEKKQDHTYRVFKTVNRWADAYPFAQHFSEASVASKDVSVWCSNDYLGMSRHPQVLQATQETLQRHGAGAGGTRNISGTSKFHVELEQELAELHQKDSALLFSSCFVANDSTLFTLAKILPGCEIYSDAGNHASMIQGIRNSGAAKFVFRHNDPDHLKKLLEKSNPKIPKIVAFETVHSMDGAICPLEELCDVSHQYGALTFVDEVHAVGLYGSRGAGIGERDGIMHKIDIISGTLGKAFGCVGGYIASTRDLVDMVRSYAAGFIFTTSLPPMVLSGALESVRLLKGEEGQALRQAHQRNVKHMRQLLMDRGLPVIPCPSHIIPIRVGNAALNSKLCDLLLSKHGIYVQAINYPTVPRGEELLRLAPSPHHSPQMMEDFVEKLLLAWTAVGLPLQDVSVAACNFCRRPVHFELMSEWERSYFGNMGPQYVTTYA [R411Q] was tested, and the “effect of a mutation on the interaction” value was “disrupting interaction strength”.
With MVTAAMLLQCCPVLARGPTSLLGKVVKTHQFLFGIGRCPILATQGPNCSQIHLKATKAGGDSPSWAKGHCPFMLSELQDGKSKIVQKAAPEVQEDVKAFKTGNYVFSYDQFFRDKIMEKKQDHTYRVFKTVNRWADAYPFAQHFSEASVASKDVSVWCSNDYLGMSRHPQVLQATQETLQRHGAGAGGTRNISGTSKFHVELEQELAELHQKDSALLFSSCFVANDSTLFTLAKILPGCEIYSDAGNHASMIQGIRNSGAAKFVFRHNDPDHLKKLLEKSNPKIPKIVAFETVHSMDGAICPLEELCDVSHQYGALTFVDEVHAVGLYGSRGAGIGERDGIMHKIDIISGTLGKAFGCVGGYIASTRDLVDMVRSYAAGFIFTTSLPPMVLSGALESVRLLKGEEGQALRRAHQRNVKHMRQLLMDRGLPVIPCPSHINPIRVGNAALNSKLCDLLLSKHGIYVQAINYPTVPRGEELLRLAPSPHHSPQMMEDFVEKLLLAWTAVGLPLQDVSVAACNFCRRPVHFELMSEWERSYFGNMGPQYVTTYA [I439N] the “effect of a mutation on the interaction” value was “disrupting interaction strength”.

Variants of: B2
Conditions: with maga8_human MAGEA8, P43361
In the case of S44F, the “effect of a mutation on the interaction” value is reported as “disrupting interaction strength”.
For G244D, the “effect of a mutation on the interaction” value was “with no effect”.
For R472I, the “effect of a mutation on the interaction” value was “with no effect”.

Variants of: B3
Conditions: with anr40_human ANKRD40, Q6AI12
D86G was tested, and the “effect of a mutation on the interaction” value was “with no effect”.
With A89V the “effect of a mutation on the interaction” value was “disrupting interaction strength”.
For Y143C, the “effect of a mutation on the interaction” value was “with no effect”.

Variants of: B4
Conditions: with nup62_human NUP62, P37198
Sequence of nup62_human NUP62, P37198 (P37198 whole entry): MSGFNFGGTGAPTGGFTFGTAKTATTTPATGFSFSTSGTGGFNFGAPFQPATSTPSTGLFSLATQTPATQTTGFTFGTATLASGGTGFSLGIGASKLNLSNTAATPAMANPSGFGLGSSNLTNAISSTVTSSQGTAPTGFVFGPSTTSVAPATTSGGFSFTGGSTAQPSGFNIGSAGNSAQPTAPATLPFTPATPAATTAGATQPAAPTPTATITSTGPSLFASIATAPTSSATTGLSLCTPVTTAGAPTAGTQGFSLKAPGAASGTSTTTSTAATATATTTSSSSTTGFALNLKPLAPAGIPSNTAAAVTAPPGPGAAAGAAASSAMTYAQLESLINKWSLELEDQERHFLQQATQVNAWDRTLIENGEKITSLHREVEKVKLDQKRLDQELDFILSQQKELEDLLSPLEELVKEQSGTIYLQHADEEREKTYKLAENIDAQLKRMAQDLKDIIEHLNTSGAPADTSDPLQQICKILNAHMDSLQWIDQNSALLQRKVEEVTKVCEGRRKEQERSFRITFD
For MLLLHRAVVLRLQQACRLKSIPSRICIQACSTNDSFQPQRPSLTFSGDNSSTQGWRVMGTLLGLGAVLAYQDHRCRAAQESTHIYTKEEVSSHTSPETGIWVTLGSEVFDVTEFVDLHPGGPSKLMLAAGGPLEPFWALYAVHNQSHVRELLAQYKIGELNPEDKVAPTVETSDPYADDPVRHPALKVNSQRPFNAEPPPELLTENYITPNPIFFTRNHLPVPNLDPDTYRLHVVGAPGGQSLSLSLDDLHNFPRYEITVTLQCAGNRRSEMTQVKEVKGLEWRTGAISTARWAGARLCDVLAQAGHQLCETEAHVCFEGLDSDPTGTAYGASIPLARAMDPEAEVLLAYEMNGQPLPRDHGFPVRVVVPGVVGARHVKWLGRVSVQPEESYSHWRRRDYKGFSPSVDWETVDFDSAPSIQELPVQSAITEPRDGETVESGEVTIKGYAWSGGGRAVIRVDVSLDGGLTWQVAKLDGEEQRPRKAWAWRLWQLKAPVPAGQKELNIVCKAVDDGYNVQPDTVAPIWNLRGVLSNAWHRVHVYVSP [Q396R], the “effect of a mutation on the interaction” value was “with no effect”.
MLLLHRAVVLRLQQACRLKSIPSRICIQACSTNDSFQPQRPSLTFSGDNSSTQGWRVMGTLLGLGAVLAYQDHRCRAAQESTHIYTKEEVSSHTSPETGIWVTLGSEVFDVTEFVDLHPGGPSKLMLAAGGPLEPFWALYAVHNQSHVRELLAQYKIGELNPEDKVAPTVETSDPYADDPVRHPALKVNSQRPFNAEPPPELLTENYITPNPIFFTRNHLPVPNLDPDTYRLHVVGAPGGQSLSLSLDDLHNFPRYEITVTLQCAGNRRSEMTQVKEVKGLEWRTGAISTARWAGARLCDVLAQAGHQLCETEAHVCFEGLDSDPTGTAYGASIPLARAMDPEAEVLLAYEMNGQPLPRDHGFPVRVVVPGVVGARHVKWLGRVSVQPEESYSHWQRRDYKGFSPSVDWETVDFDSAPSIQELPVQSAITEPRDGETVESGEVTIKGYARSGGGRAVIRVDVSLDGGLTWQVAKLDGEEQRPRKAWAWRLWQLKAPVPAGQKELNIVCKAVDDGYNVQPDTVAPIWNLRGVLSNAWHRVHVYVSP [W450R] was tested, and the “effect of a mutation on the interaction” value was “disrupting interaction strength”.
